Test results reported in patent publication US7807162B2, “Single domain VHH antibodies against von Willebrand factor” (Ablynx N.V., priority 2005, dated 2010).
Numbering of substitutions follows the chain as printed. Where “and” joins values, the source holds several entries; their conditions need not be identical. Identical values can stand only once.

Tests used:
[1] = system: cyclic flow reductions (CFRs) in injured, stenosed femoral artery; assay: Folts thrombosis model in baboons: length/inhibition of cyclic flow reductions (CFRs); assay type: in vivo, baboon (Papio ursinus)
Protocol: The study protocol that was applied is the original Folts model and some modifications described below (Folts J D, et al, Circulation. 1976; 54:365-370). Healthy male or female baboons (Papio ursinus) were used. The animals were 8-17 kg of weight and were disease-free for at least 2 weeks prior to use. The baboons were fed with dry standard food only. The baboons were used at different time points. […] Animals were anaesthetized and body temperature is maintained at 37° C. with a heating table. A segment of a femoral artery was dissected free from surrounding tissue. A shunt was placed between the femoral vein and femoral artery to obtain high shear rates. The mean and phasic blood flow was recorded continuously throughout the experiment. Baseline flow was recorded for 20 minutes. […] A clamp was placed over the injured site to create an external stenosis. A gradual decline in blood flow due to platelet adhesion and aggregation was observed. When flow was reduced to zero, blood flow was restored by opening the clamp to dislodge the platelet-rich thrombus. This repetitive pattern of decreasing blood flow following mechanical restoration is referred to as cyclic flow reductions (CFRs). Additional endothelial injury was repeated if needed to finally obtain stable CFRs in these baboons. The number of times the thrombus needed to be dislodged determines the number of CFRs. FIG. 24 illustrates blood flow pattern during the Folts model in baboons. […] This procedure was repeated for several times with escalating doses of the test substance. The anti-thrombotic effect was quantified by comparing the length of CFRs before and after drug administration. When full inhibition of CFRs was observed, a new injury was applied in order to confirm that the inhibition was an effect of the treatment but not of a natural healing phenomenon.

[2] = system: platelet adhesion to collagen type III; assay: Inhibition of platelet adhesion by nanobodies in a flow (perfusion) chamber; assay type: cell-based, human; settings: for % Platelet adhesion at 2 μg/ml: human blood, collagen type III, wall shear rate 1600 s^−1
Protocol: The protein samples were analysed in a perfusion chamber. Thermanox coverslips (Nunc) were soaked overnight in 80% ethanol, rinsed thoroughly with distilled water and air-dried. Human placental collagen type III (Sigma) was solubilized in 0.05 mol/l acetic acid and sprayed on the coverslips at a final density of 30 μg/cm^2 with a retouching airbrush. After spraying the coverslips were blocked with 1% human albumin solution in PBS for at least 1 hour at RT. Perfusions were performed with a single-pass perfusion chamber under non-pulsatile flow conditions using a modified small perfusion chamber with a slit height of 0.1 mm and a slit width of 2 mm. Blood was obtained by venipuncture from healthy volunteers and anti-coagulated with Penta/PPACK. Triplicate coverslips were inserted into the chamber. […] After a perfusion run, the coverslip was taken from the chamber, rinsed in Hepes buffered saline (10 mM Hepes, 150 mM NaCL, ph 7.4), fixed in 0.5% glutaraldehyde in PBS, dehydrated in methanol and stained with May-Grünwald and Giemsa (Riedel de Haën). Platelet deposition was evaluated as platelet surface coverage using light microscopy and computer-assisted analysis.

[3] = number of experiments with inhibition / total number of independent repeats

## CC(=O)Oc1ccccc1C(=O)O [Aspegic]
[1]; Aspegic final dose 1 mg/kg, individual baboons 3, 4, 5, 1 mg/kg
  Length of CFRs: 149 s and 164 s and 135 s
[1]; Aspegic final dose 2.5 mg/kg, individual baboons 3, 4, 5, 2.5 mg/kg
  Length of CFRs: 102 s and 325 s and 115 s
[1]; Aspegic final dose 5 mg/kg, individual baboons 3, 4, 5, 5 mg/kg
  Length of CFRs: 102 s and 1800 s and 245 s
[1]; Aspegic final dose 10 mg/kg, individual baboons 3, 4, 5, 10 mg/kg
  Length of CFRs: 113 s and 905 s and 156 s
[1]; Aspegic final dose 20 mg/kg, individual baboons 3, 4, 5, 20 mg/kg
  Length of CFRs: 125 s and 657 s and 169 s
[1]; Aspegic final dose 40 mg/kg, individual baboons 3, 5, 40 mg/kg
  Length of CFRs: 110 s and 145 s
[1]; Aspegic final dose 80 mg/kg, baboon 3
  Length of CFRs: 129 s
[1]; Aspegic-treated, after Epinephrin, baboon 4
  Length of CFRs: 161 s
[1]; baboon 3 and 5, doses as high as 80 and 40 mg/kg respectively
  Inhibition of CFRs: no inhibition of CFRs could be obtained
[1]; baboon 4
  dose at which full inhibition of CFRs was obtained: 5 mg/kg
[1]; baboon 4, higher doses and upon new injury, CFRs returned
  mean length of the CFRs versus before administration: 3-4 times
[1]; [3]
  Inhibition of CFRs: 0/3
  Inhibition of CFRs after administration of Epinephrin: 0/1
  Inhibition of CFRs after new injury: 0/3

B1: 12B6-3a-12B6 (protein)
VHH: QVQLVESGGGLVQAGGALRLSCAASGRTFSYNPMGWFRQAPGKERDVVAAISRTGGSTYYARSVEGRFTISRDNAKRMVYLQMNALKPEDTAVYYCAAAGVRAEDGRVRTLPSEYNFWGQGTQVTVSSAAAEVQLVESGGGLVQAGGALRLSCAASGRTFSYNPMGWFRQAPGKERDVVAAISRTGGSTYYARSVEGRFTISRDNAKRMVYLQMNALKPEDTAVYYCAAAGVRAEDGRVRTLPSEYNFWGQGTQVTVSS
[2]; 0.3 μg/ml nanobody, Table 41
  % Platelet adhesion: 15 ± 6%
[2]; 0.6 μg/ml nanobody, Table 41
  % Platelet adhesion: 8 ± 6%

B2: 12A2H4-3a-12A2H4 (protein)
chain: EVQLVESGGGLVQPGGSLRLSCAASGRTFSYNPMGWFRQAPGKGRELVAAISRTGGSTYYPDSVEGRFTISRDNAKRSVYLQMNSLRAEDTAVYYCAAAGVRAEDGRVRTLPSEYTFWGQGTQVTVSSAAAEVQLVESGGGLVQPGGSLRLSCAASGRTFSYNPMGWFRQAPGKGRELVAAISRTGGSTYYPDSVEGRFTISRDNAKRSVYLQMNSLRAEDTAVYYCAAAGVRAEDGRVRTLPSEYTFWGQGTQVTVSS
[2]; 0.3 μg/ml nanobody, Table 41
  % Platelet adhesion: 10 ± 6%
[2]; 0.6 μg/ml nanobody, Table 41
  % Platelet adhesion: 8 ± 4%

B3: 12D11: anti-vWF nanobody, SEQ ID NO: 63 (protein)
VHH: AVQLVDSGGGLVQAGGSLRLSCTASERTTFSSYTLGWFRQAPGKEREFVGGISWSGVSTDYAEFAKGRFTISRDHAANTVYLEMNSLKPEDTAVYYCAALGRYRSNWRNIGQYDYWGQGTQVTVSS
[2]; 2 μg/ml nanobody
  % Platelet adhesion at 2 μg/ml: 61 ± 7%

B4: 12A2-GS9-12A2 (protein)
VHH: QVKLEESGGGLVQAGGALRLSCAASGRTFSYNPMGWFRQAPGKERDLVAAISRTGGSTYYPDSVEGRFTISRDNAKRMVYLQMNNLKPEDTAVYYCAAAGVRAEDGRVRTLPSEYTFWGQGTQVTVSSGGGGSGGGSEVQLVESGGGLVQAGGALRLSCAASGRTFSYNPMGWFRQAPGKERDLVAAISRTGGSTYYPDSVEGRFTISRDNAKRMVYLQMNNLKPEDTAVYYCAAAGVRAEDGRVRTLPSEYTFWGQGTQVTVSS
[2]; 0.1 μg/ml nanobody, Table 23
  % Platelet adhesion: 81 ± 1%
[2]; 0.2 μg/ml nanobody, Table 23
  % Platelet adhesion: 73 ± 1%
[2]; 0.4 μg/ml nanobody, Table 23
  % Platelet adhesion: 40 ± 2%

B5: 12A2-3a-12A2 (protein)
VHH: QVKLEESGGGLVQAGGALRLSCAASGRTFSYNPMGWFRQAPGKERDLVAAISRTGGSTYYPDSVEGRFTISRDNAKRMVYLQMNNLKPEDTAVYYCAAAGVRAEDGRVRTLPSEYTFWGQGTQVTVSSAAAEVQLVESGGGLVQAGGALRLSCAASGRTFSYNPMGWFRQAPGKERDLVAAISRTGGSTYYPDSVEGRFTISRDNAKRMVYLQMNNLKPEDTAVYYCAAAGVRAEDGRVRTLPSEYTFWGQGTQVTVSS
[2]; 0.1 μg/ml nanobody, Table 23
  % Platelet adhesion: 74 ± 5%
[2]; 0.2 μg/ml nanobody, Table 23
  % Platelet adhesion: 50 ± 3%
[2]; 0.3 μg/ml nanobody, Table 41
  % Platelet adhesion: 10 ± 8%
[2]; 0.4 μg/ml nanobody, Table 23
  % Platelet adhesion: 33 ± 0%
[2]; 0.6 μg/ml nanobody, Table 41
  % Platelet adhesion: 4 ± 3%

B6: 12B1: anti-vWF nanobody, SEQ ID NO: 61 (protein)
VHH: QVQLVESGGGLVQAGGSLRLSCAASGRTFSNYGMGWFRQAPGKEREFVTSISWSGTYTAYSDNVKGRFTISRDNAKNTVYLQMDSLKPEDTAVYYCAAQSRYRSNYYDHDDKYAYWGQGTQVTVSS
[2]; 2 μg/ml nanobody
  % Platelet adhesion at 2 μg/ml: 56 ± 3%

B7: 12E3: anti-vWF nanobody, SEQ ID NO: 64 (protein)
VHH: B6 VHH with Q1E, S30N, T56S, S61A, E89G, R103S
[2]; 2 μg/ml nanobody
  % Platelet adhesion at 2 μg/ml: 54 ± 1%

B8: 14F8: anti-vWF nanobody, SEQ ID NO: 66 (protein)
VHH: AVQLVESGGGLVQAGESLRLSCTSSGRAFSYYNTGWFRQAPGKEREFVAAISWSGGLTYYADSVKGRFTISRDNAKDMVYLQMASLKPEDTAVYYCAANRRQKTVQMGERAYDYWGQGTQVTVSS
[2]; 2 μg/ml nanobody
  % Platelet adhesion at 2 μg/ml: 51 ± 10%

B9: 12A2H4: humanised 12A2 nanobody, SEQ ID NO: 92 (protein)
VHH: EVQLVESGGGLVQPGGSLRLSCAASGRTFSYNPMGWFRQAPGKGRELVAAISRTGGSTYYPDSVEGRFTISRDNAKRSVYLQMNSLRAEDTAVYYCAAAGVRAEDGRVRTLPSEYTFWGQGTQVTVSS
[2]; 0.5 μg/ml nanobody, Table 32
  % Platelet adhesion: 61 ± 1%
[2]; 0.7 μg/ml nanobody, Table 31
  % Platelet adhesion: 55 ± 1%
[2]; 1 μg/ml nanobody, Table 32
  % Platelet adhesion: 57 ± 1%
[2]; 2 μg/ml nanobody, Table 32
  % Platelet adhesion: 46 ± 5%

B10: 12A2H1: humanised 12A2 nanobody, SEQ ID NO: 90 (protein)
VHH: B9 VHH with S78M
[2]; 0.5 μg/ml nanobody, Table 32
  % Platelet adhesion: 40 ± 9%
[2]; 0.7 μg/ml nanobody, Table 31
  % Platelet adhesion: 49 ± 1%
[2]; 1 μg/ml nanobody, Table 32
  % Platelet adhesion: 43 ± 3%
[2]; 2 μg/ml nanobody, Table 32
  % Platelet adhesion: 38 ± 5%

B11: 12C9: anti-vWF nanobody, SEQ ID NO: 65 (protein)
VHH: AVQLVESGGGLVQPGGSLKLSCATSGSIFSSSAMAWYRQASGKQRELVATITSGGRTSYADSVKGRFTISRDNAKNTVYLQMNSLKPEDTAVYDCNFVVDGKRAPWGQGTQVTVSS
[2]; 2 μg/ml nanobody
  % Platelet adhesion at 2 μg/ml: 68 ± 8%

B12: 12A5: anti-vWF nanobody, SEQ ID NO: 60 (protein)
VHH: AVQLVESGGGLVQPGGSLRLSCLASGRIFSIGAMGMYRQAPGKQRELVATITSGGSTNYADPVKGRFTISRDGPKNTVYLQMNSLKPEDTAVYYCYANLKQGSYGYRFNDYWGQGTQVTVSS
[2]; 0.2 μg/ml nanobody, Table 15
  % Platelet adhesion: 50 ± 7%
[2]; 0.4 μg/ml nanobody, Table 15
  % Platelet adhesion: 27 ± 10%
[2]; 0.6 μg/ml nanobody, Table 15
  % Platelet adhesion: 2 ± 2%
[2]; 2 μg/ml nanobody
  % Platelet adhesion at 2 μg/ml: 10 ± 3%
[2]; perfusion chamber at high shear rate
  inhibition of platelet adhesion to collagen type III: clearly inhibit platelet adhesion
[2]; tested at 0.2, 0.4 and 0.6 μg/ml, same donor
  concentration with full inhibition of platelet adhesion: 0.6 µg/mL
